Where two headings read alike, the source gives them in different places.
B1: ObiH: known L-threonine transaldolase of obafluorin biosynthesis, SEQ ID NO: 30, Pseudomonas fluorescens, ARJ35753.1 (protein)
chain: MSNVKQQTAQIVDWLSSTLGKDHQYREDSLSLTANENYPSALVRLTSGSTAGAFYHCSFPFEVPAGEWHFPEPGHMNAIADQVRDLGKTLIGAQAFDWRPNGGSTAEQALMLAACKPGEGFVHFAHRDGGHFALESLAQKMGIEIFHLPVNPTSLLIDVAKLDEMVRRNPHIRIVILDQSFKLRWQPLAEIRSVLPDSCTLTYDMSHDGGLIMGGVFDSPLSCGADIVHGNTHKTIPGPQKGYIGFKSAQHPLLVDTSLWVCPHLQSNCHAEQLPPMWVAFKEMELFGRDYAAQIVSNAKTLARHLHELGLDVTGESFGFTQTHQVHFAVGDLQKALDLCVNSLHAGGIRSTNIEIPGKPGVHGIRLGVQAMTRRGMKEKDFEVVARFIADLYFKKTEPAKVAQQIKEFLQAFPLAPLAYSFDNYLDEELLAAVYQGAQR
modifications: Psuedomonas fluorescenes
B2: BuTTA: TTA, SEQ ID NO: 34, Burkholderia ubonensis (protein, listed as Burkholderia ubonensis)
chain: MTDFAQAVVNPFVDEQRKSRLVEKISNIFDSLHSDFALDNLYRASHLSLTASENYPSRFVRTLGAGMQGGFYEFAPPYAANPGEWYFPDSGAQSSLVEKLASLGKQLFEANSFDWRPNGGSAAEQAVLLGTCARGDGFVHFAHKDGGHFALEELAQKVGVSIFHLPIEEKSLLIDVDRLATLIKDNPHIKLVILDQSFKLRWQPLLQIRQALPESVVLSYDASHDGGLIIGECLPQPLLFGADIVHGNTHKTIPGPQKGYIAFKNVDHPAMKHVSDWVCPHLQSNSHAELIAPMYIALVEMSLYGRSYAEQVIKNAKALAHALHAEGVRVSGESFGFTETHQVHVVVGSERKALELVTGTLALAGIRCNNIEIPGANGLFGLRLGVQALTRRGIKEHGMAEVARFLVRLILKNESPTAIRNEIASFLESYPINTLHYSLDAHYYTPSGIKLMEEVIA
B3: KaTTA: L-threonine transaldolase, SEQ ID NO: 1, Kitasatospora aureofaciens, WP_033354341 (protein, listed as Kitasatospora aureofaciens)
chain: MDVLAALERKHSLNLFPIENRLSPRAAAALASDAVNRYPYSETDVAVYGDVSDLNAVYDHCVSLTKEFYGARHAYVQFLSGLHTMHTVLTAVTPPGGRVMVIAPEDGGHYATVTICQGFGYRVEYVPFDRQTLEIDYTALAERTAEHPADVIYLDASTVLRMPDARALRAAAPGAVLCLDASHLLGLLPAAPGTLVLDAGFDSISGSTHKTLPGPQKGLLVTNSDAIAEQVGARIPFTASSSHSASVGSLAITLEELLPHRGDYARQVIANARELARQLAARGFDVAGEAFGFTDTHQVWVHHPEGNTPHEWGRLLTATDIRTTTVVLPSTARSGLRLGTQELTRWGMKEDDMTTVAELLARLLLRGEQSRSVAADVRDLARSFPGVAFADRPAPLAVA
B4: PiTTA: TTA, SEQ ID NO: 31, Pseudomonas sp. Irchel s3a18 (protein)
chain: MKQDESNVGPVIDWLAQTLGQDYKYRQDTLSLTANENYPSELVRLTSGSTAGAFYHCSFPFPVPLGEWHFPEPGQMNEIADDLRGLAKRMMGAQAFDWRPNGGSPAEQALMLAACKQGEGFVHFAHRDGGHFALEQLATKMGIEIFHLPVDPQSLLIDVAKLDDMVRRNPHIRIVILDQSFKLRWQPLAEIRAILPDSCTLTYDMSHDGGLILGGVFDSPLACGADIAHGNTHKTIPGPQKGFIAFKSAQHPLLVETSLWVCPHLQSNCHAELLPSMWAAFKEMEAFGPAYAHQMVRNAKALANQLHELGLNVSGESFGFTETHQVHFAVGDLQQALSMCVDSLHAGGIRSTNIEIPGKPGMHGIRLGVQAMTRRGMKEDDFRRVAGLIADLYFKRTEPARVASKVKELLGDFPLAPLAYSFDQQIDESRRRLLERGIQR
modifications: Pseudomonas_sp._Irchel_s3a18
notes: Irchel s3a18
B5: CsTTA: TTA, SEQ ID NO: 33, Chitiniphilus shinanonensis (protein, listed as Chitiniphilus shinanonensis)
chain: MTRTTPQARHVVERLNSVLGQDYRYREDCLSLTANENYPSALVRLAGSATAGAFYHCSFPFEVPPGEWYFPESGRMGELAQQLNELGRSLLGAGTFDWRPNGGSPAEQALMLAACKHGEGMVHFAHRDGGHFALENLAQKAGIDIFHLPVDPQTLLIDVARLDELVRRNPQIRIVILDQSFKLRWQPLAAIRKVLPPSCTLTYDTSHDGGLIMGGVFDSPLHCGADVIHGNTHKTVPGPQKGYIAFKSAEHPLLVDTSLWLCPHLQSNCHAELLPPMWVAFKEMEAFGHDYAPQVARNAKALAGHLHRLGFEVSGEAFGFTETHQVHFAVGDLQQALDLCMNTLHRGGIRSTNIEIPGKPGIQGIRLGVQAMTRRGLREDDFEQVARFIADLHFRKADPAGVAAQVAEFLRAFPLAPLHYSFDQELDHELLQSLIGEALR

How the values were obtained:
[1] = TTA-ADH coupled assay at different L-Thr concentrations (apparent L-Thr KM and kcat); assay type: biochemical; settings: for Km: apparent, phenylacetaldehyde (14) as aldehyde, ADH coupling, non-linear regression; for L-Thr kcat compared with ObiH: phenylacetaldehyde as the aldehyde substrate
Method: (§1) High-throughput screening of purified TTAs was performed with a TTA-ADH coupled assay using purified TTA and commercially available alcohol dehydrogenase from S. cerevisiae purchased from MilliporeSigma. Aldehyde stocks were prepared in 50-100 mM solutions in DMSO or acetonitrile. Reaction mixtures were prepared in a 96-well plate with 100 μL of 100 mM phosphate buffer pH 7.5, 0.5 mM NADH, 0.4 mM PLP, 15 mM MgCl2, and 100 mM L-Thr with the addition of 0.25 mM to 1 mM aldehyde depending on the background absorbance at 340 nm (Table 4), 10 U ScADH, and 0.25 μM purified TTA unless otherwise specified. Reactions were initiated with the addition of enzyme. […] The following controls were included for every assay: reaction mixture without aldehyde, without TTA, and without enzyme (TTA or ADH). Rates were calculated by identifying the linear region at the beginning of the kinetic run and converting the depletion in absorbance to the depletion of mM NADH using an NADH standard curve.
We next sought to determine the affinity of these enzymes for L-Thr, which we obtained by performing the TTA-ADH coupled assay at different L-Thr concentrations (FIG. 16b). […] Two differences between our assays were the substrate, phenylacetaldehyde (14) instead of 4-nitrophenylacetylaldehyde (15), and the assay format, ADH coupling rather than a discontinuous HPLC assay. Because a live cellular environment would also contain alcohol dehydrogenases for reduction of acetaldehyde, it is possible that the KM values that we are measuring using the TTA-ADH coupled assay may be more realistic for our envisioned applications.

[2] = literature value; ObiH: 4-nitrophenylacetylaldehyde (15), discontinuous HPLC assay; read-out: reported L-Thr KM; cited from earlier work
[3] = TTA-ADH coupled assay, substrate scope of TTAs on aromatic aldehydes; assay type: biochemical; settings: for activity on a set of aromatic aldehyde substrates (substrate scope): substrates 1, 3, 6, 7, 8, 12, 15
Method: as §1
We specifically selected substrates with ring substituents with different electron withdrawing properties (1, 3, 6, 7, 8), substituent size (12), and aldehyde chain length (15) to compare the activity of the putative TTAs to ObiH. We were also encouraged by the activity of PbTTA and KaTTA on vanillin and protocatechualdehyde which are substrates that would form products like commercially available therapeutic, Droxidopa (FIG. 18).
To explore the possibility that DbTTA and TmTTA are TTAs active on other related aldehydes, we sought to examine their activity with L-Thr and aldehyde substrates with different ring substituent position (2), bulkier, hydrophobic chemistry (10), and aldehyde chain length (14) using the TTA-ADH coupled assay.

[4] = TTA-ADH coupled assay, screen of purified TTAs on 2-nitro-benzaldehyde; assay type: biochemical; settings: substrate 3, TTA-ADH coupled assay
Method: as §1
Once purified, we identified the putative TTAs with high activity and further characterized them for their L-Thr affinity and substrate scope. We first screened each purified enzyme using the TTA-ADH coupled assay with 2-nitro-benzaldehyde, 3, the best performing substrate from the screen of ObiH that was not a substrate of the ScADH. […] With this evidence as well as well-aligned, predicted AlphaFold structures, we assumed the impact of the SUMO tag would be minimal for all TTAs screened and moved forward with additional enzyme characterization.

[5] = In vitro assay over 20 h with HPLC analysis (amino acid substrate specificity, diastereomeric excess); assay type: biochemical; settings: 3 as aldehyde substrate
Method: Metabolites of interest were quantified via high-performance liquid chromatography (HPLC) using an Agilent 1260 Infinity model equipped with a Zorbax Eclipse Plus-C18 column. To quantify aldehyde and β-OH-nsAAs, an initial mobile phase of solvent A/B=95/5 was used (solvent A, water+0.1% TFA; solvent B, acetonitrile+0.1% TFA) and maintained for 5 min. A gradient elution was performed (A/B) as follows: gradient from 95/5 to 50/50 for 5-12 min, gradient from 50/50 to 0/100 for 12-13 min, and gradient from 0/100 to 95/5 for 13-14 min. A flow rate of 1 mL min-1 was maintained, and absorption was monitored at 210, 250 and 280 nm.
We performed an in vitro assay over 20 h using 3 as the aldehyde substrate and either L-Thr, Glycine (Gly), or L-Serine (L-Ser) as the candidate amino acid. Since the TTA-ADH coupled assay is specific to L-Thr, we analyzed TTA activity via HPLC with a chemically synthesized β-OH-nsAA standard for the assumed product from 3.

| Molecule | Km [1] [mM] | Km [2] [mM] | L-Thr kcat compared with ObiH [1] | activity on a set of aromatic aldehyde substrates (substrate scope) [3] | activity on 2-nitro-benzaldehyde relative to ObiH [4] | β-OH-nsAA formation using L-Ser or Gly [5] | activity on vanillin and protocatechualdehyde ([3]; TTA-ADH coupled assay) |
| --- | --- | --- | --- | --- | --- | --- | --- |
| B1 | 29.5 | 40.2 ± 3.8 |  |  |  |  |  |
| B2 |  |  | higher measured L-Thr kcat values than ObiH | relatively selective | comparable to or better than ObiH | no β-OH-nsAA formation |  |
| B3 | 19.1 |  |  |  | comparable to or better than ObiH | no β-OH-nsAA formation | activity |
| B4 |  |  | higher measured L-Thr kcat values than ObiH | relatively selective | comparable to or better than ObiH | no β-OH-nsAA formation |  |
| B5 |  |  | higher measured L-Thr kcat values than ObiH |  | comparable to or better than ObiH | no β-OH-nsAA formation |  |

— US20250215467A1, “L-THREONINE TRANSALDOLASES AND USES THEREOF” (University of Delaware, priority 2022, published 2025)
